# US7598032B2, “Thermostable DNA polymerases incorporating nucleoside triphosphates labeled with fluorescent dyes” (Roche Molecular Systems, priority 1997, dated 2009)
# B1: G46D F667Y E681K Taq: thermostable Taq DNA polymerase with G46D, F667Y and E681K mutations, encoded by plasmid pLK113 (protein, UniProt P19821 1-832, looked up, variant G46D F667Y E681K)
# DNA polymerase I, thermostable: MRGMLPLFEPKGRVLLVDGHHLAYRTFHALKGLTTSRGEPVQAVYDFAKSLLKALKEDGDAVIVVFDAKAPSFRHEAYGGYKAGRAPTPEDFPRQLALIKELVDLLGLARLEVPGYEADDVLASLAKKAEKEGYEVRILTADKDLYQLLSDRIHVLHPEGYLITPAWLWEKYGLRPDQWADYRALTGDESDNLPGVKGIGEKTARKLLEEWGSLEALLKNLDRLKPAIREKILAHMDDLKLSWDLAKVRTDLPLEVDFAKRREPDRERLRAFLERLEFGSLLHEFGLLESPKALEEAPWPPPEGAFVGFVLSRKEPMWADLLALAAARGGRVHRAPEPYKALRDLKEARGLLAKDLSVLALREGLGLPPGDDPMLLAYLLDPSNTTPEGVARRYGGEWTEEAGERAALSERLFANLWGRLEGEERLLWLYREVERPLSAVLAHMEATGVRLDVAYLRALSLEVAEEIARLEAEVFRLAGHPFNLNSRDQLERVLFDELGLPAIGKTEKTGKRSTSAAVLEALREAHPIVEKILQYRELTKLKSTYIDPLPDLIHPRTGRLHTRFNQTATATGRLSSSDPNLQNIPVRTPLGQRIRRAFIAEEGWLLVALDYSQIELRVLAHLSGDENLIRVFQEGRDIHTETASWMFGVPREAVDPLMRRAAKTINYGVLYGMSAHRLSQKLAIPYEEAQAFIERYFQSFPKVRAWIEKTLEEGRRRGYVETLFGRRRYVPDLEARVKSVREAAERMAFNMPVQGTAADLMKLAMVKLFPRLEEMGARMLLQVHDELVLEAPKERAEAVARLAKEVMEGVYPLAVPLEVEVGIGEDWLSAKE
# Tested on: primer annealed to an M13 template
# Test: Extension rate assay
# Assay type: biochemical
# Settings: for extension rate, Base Pairs/Sec: 75° C
# Protocol: The extension rate of G46D F667Y Taq and G46D F667Y E681K Taq were determined using an extension rate assay. In this experiment, the enzymes were used to extend a primer annealed to an M13 template in the presence of [α-^33P]dCTP. The extension reactions were denatured and the products analyzed by denaturing agarose gel electrophoresis.
# The assay was performed as previously described (Lawyer et al., 1989, J. Biol. Chem. 264:6427) including the following modifications. The assay mixture was composed so the final concentration was 50 mM Bicine pH 8.3, 25° C., 2.5 mM MgCl2, 1 mM β-mercaptoethanol, 200 μM each of dATP, dGTP and dTTP (Perkin-Elmer), 100 μM dCTP (Perkin-Elmer) containing [α-^33P]dCTP (New England Nuclear, Boston, Mass.). M13 mp18 (Perkin-Elmer) was annealed to primer DG48, (SEQ ID NO: 11), and the equivalent of 0.085 pmoles of the annealed template was added to the assay mixture for each reaction. Forty-five μl of the assay mixture with template DNA was added to each of fourteen 0.5 ml eppendorf tubes. Each tube was preincubated at 75° C. for at least 30 seconds before the start of the polymerase reaction.
# Polymerization was initiated in six of the fourteen assay tubes with 5 μl of G46D F667Y Taq DNA polymerase (2.5 units) or G46D F667Y E681K Taq DNA polymerase (1.25 units). Both enzymes were prepared as in Example I and the concentration used represents a predetermined excess amount of enzyme for the amount of substrate in the assay. As a control for the level of background, the remaining negative control was initiated with enzyme dilution buffer rather than polymerase. All reaction tubes were immediately vortexed briefly and incubated at 75° C. Two of the six tubes containing G46D F667Y Taq DNA polymerase were incubated 3 minutes, two for 6 minutes and two for 10 minutes. Similarly, two of the tubes started with G46D F667Y E681K Taq DNA polymerase were incubated for 30 seconds, two for 1 minute and two for 2 minutes. The control tubes were incubated for 3 minutes. The reactions were stopped by addition of 10 μl 60 mM EDTA and stored at 0° C.
# For each reaction, a 25 μl aliquot of the 60 μl reaction was diluted with 1 ml 2 mM EDTA, 50 μg/ml sheared salmon sperm DNA as a carrier. The DNA was precipitated with TCA using standard procedures and collected on GF/C filter discs (Whatman). The amount of incorporated [α-^33P]dCMP was determined for each sample.
# The remaining 35 μl of each duplicated were combined and the 70 μl sample was ethanol precipitated, dried and resuspended in 50 mM NaOH, 1 mM EDTA. Aliquots were removed from these samples such that an equal number of α-^33P] counts were taken from each. These aliquots were loaded on an 0.9% alkaline agarose gel, electrophoresed, dried and autoradiographed as previously described (Maniatis et al., 1982, In Molecular Cloning: A Laboratory Manual, Cold Spring Harbor Laboratory, Cold Spring Harbor, N.Y.) Bacteriophage lambda DNA cut with restriction enzyme HindIII (BRL) and 5′ end-labeled with [^32P] was used as a molecular weight standard.
# The length in base pairs of the extension product in each sample was determined by comparison of the migration distance of each sample with the distance migrated by the lambda DNA size standard. The number of base pairs in each product was divided by the number of seconds each extension reaction incubated to give the extension rate as shown below.
molecule,measurement,setting,value
B1,"extension rate, Base Pairs/Sec",Time 30 sec.,36.7 Base Pairs/Sec
same,"extension rate, Base Pairs/Sec",Time 1 min.,41.7 Base Pairs/Sec
same,"extension rate, Base Pairs/Sec",Time 2 min,52.9 Base Pairs/Sec
same,extension rate (in words),relative to an enzyme with the F667Y mutation alone,significantly increased extension rate
